How the values were obtained:
[1] = test system: IL-10KO mice, spontaneous colitis; experiment: IL10-KO spontaneous chronic colitis model; assay type: in vivo; settings: 25 μg/injection i.p., 3 times a week, vs isotype control
Method: FIG. 4. […] Mice KO for IL10 develop a spontaneous inflammatory colitis. They were treated with an Anti-CMKLR1 antibody (2G1) ( ) or isotype control (hIgG1) (x) intra-peritoneally (25 μg/injection, 3 times a week). A. Animal weight loss during and after treatment. B. Animal score stool.
IL-10KO mice develop a spontaneous colitis from 20 weeks of age mostly due to the absence of regulatory T cells function through IL-10 secretion in the intestine. IL-10KO mice were followed-up three times a week from 18-week old for their weight loss and stool consistency which are clinical hallmarks of this pathology.

[2] = test system: NOD female mice, spontaneous type 1 diabetes; experiment: Type 1 diabetes NOD model; assay type: in vivo; settings: 20 μg/injection i.p. three times a week for 2 weeks
Source text: FIG. 5. […] Mice develop spontaneous diabetes. […] A. Percentage of survival, B. individual representation of blood glucose concentration in mg/dL. C. pooled representation of blood glucose concentration in mg/dL.
8 weeks-old NOD female mice were obtained from Charles River laboratory. These mice develop a spontaneous type 1 diabetes at age between 12 to 20 weeks. The diabetes initiation can be measured by the high glycaemia.

4T1 cells = experiment: Orthotopic 4T1 mammary carcinoma model, primary tumor and metastasis; assay type: in vivo, mice
Method: FIG. 8. […] Mice were inoculated with 4T1 cells (0.25 millions) in the mammary gland. […] A. The tumor area was measured 8 days after tumor injection and then every 2 days. B. Tumor lung metastasis was measured by Bioluminescence imaging (BLI) in animals treated with isotype control and anti-CMKLR1 antibody (n=4).
Mice were anesthetized with 3% of isoflurane. Mice were shaved on the abdomen and 4T1 cells (0.25 millions) were injected in the mammary gland with an insulinic syringe (30 Gauges) in 50 μL of PBS. […] In a second study to measure the lung metastasis following mammary carcinoma development, animals were treated with anti-CMKLR1 antibody at 0.8 mg/kg or control antibody (100 μg/injection) three times a week for three weeks.

[3] = test system: Akt and Erk proteins (CMKLR1 pathway); experiment: Western blot of Akt and Erk phosphorylation in mice M1 macrophages; assay type: cell-based; settings: FIG. 18; mice M1, 2 μg/mL, after 10 to 30 minutes of incubation
Method: FIG. 18. Study of the CMKLR1 pathway activation: Akt and Erk phosphorylation. Western blot analysis of the ERK and AKT activation pathway after 5, 10 and 30 minutes of mice M1 cell incubation with 2G1 or RvE1. The Phosphorylated protein Akt or Erk were assessed using P-Akt antibody or P-Erk antibody (p44/42). A. Erk and Akt activation with RvE1. B. Erk and Akt activation with 2G1.
Mice pro-inflammatory macrophages (M1) were generated from bone marrow with M-CSF and polarized with IFN-gamma (IFNg) and LPS. Briefly, bone marrow cells were collected by flushing the femoral bone and cultured with 100 ng/mL of mM-CSF for 5 days and then polarized with 20 ng/ml of IFNg and 100 ng/mL of LPS for 24 h. Then, they were deprived of FBS for 24 hours with RPMI FBS 2% medium. Finally, mice M1 were treated with 2 μg/mL of 2G1 antibody at different times: 5, 10 and 30 minutes. Cells were collected in a RIPA buffer. The protein concentration was measured by a BCA protein kit assay. Proteins were denatured by heating at 95° C. for 5 minutes and diluted in DTT and Laemmli solution. After migration and transfer, the nitrocellulose membrane was blocked with 5% BSA in TBS-T for 2 hours. […] Western blot Images were quantified by Multi Gauge software

CMKLR1 receptor = target: T1, CMKLR1 receptor (Homo sapiens, UniProt Q99788); experiment: Competition with Chemerin in cAMP production by CMKLR1 receptor, CHO-K1 CMKLR1 Gi cells; assay type: cell-based; settings: FIG. 20A; antibody 1 μM to 1 nM, chemerin 2 nM
T1 construct: host or cells: CHO-K1
T1 sequence (Q99788 1-373): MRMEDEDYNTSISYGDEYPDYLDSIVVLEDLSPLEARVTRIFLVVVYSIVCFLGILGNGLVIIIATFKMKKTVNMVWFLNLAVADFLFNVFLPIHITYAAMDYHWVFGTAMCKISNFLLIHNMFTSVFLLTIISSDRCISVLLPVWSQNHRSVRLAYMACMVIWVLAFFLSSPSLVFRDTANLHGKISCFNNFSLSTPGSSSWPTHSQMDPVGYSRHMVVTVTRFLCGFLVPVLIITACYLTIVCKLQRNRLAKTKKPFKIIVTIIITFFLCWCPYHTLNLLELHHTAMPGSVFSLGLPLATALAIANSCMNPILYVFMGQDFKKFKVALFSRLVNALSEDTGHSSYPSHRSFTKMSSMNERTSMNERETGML
Method: The day before the experiment CHO-K1 CMKLR1 Gi cells (Discover'X ref 95-0080C2) were plated in pre-warmed cell reagent then plated in a 96-well plate at 100 μl/well of cells as (Discover'X ref 15-103) and incubated 24 hours at 37° C., in a 5% CO2 humidified incubator for 24 hours.
For the detection CAMP, antibody reagent and cAMP working detection solution was added to the plate for 1 hour at room temperature, then CAMP solution A was added, and cells incubated 3 hours at room temperature in the dark. Bioluminescence was read with a plate reader with 0.5 s integration.

Hepa 1.6 cells = experiment: Orthotopic hepatocarcinoma (HCC) model, overall survival; settings: FIG. 22; Hepa 1.6 HCC model; anti-CMKLR1 0.8 mg/kg, anti-PD1 8 mg/kg; followed sixty days
Method: Effect of an anti-CMKLR1 antibody on an Hepatocarcinoma mice model (HCC model). […] Isotype control antibody was used at 0.8 mg/kg three times a week for 2 weeks. Mice response were considered partial (PR) when mice survive few days to 1 month after stop of treatment or complete (CR) when mice survive over 1 month or cured when they survive three times longer than the time necessary to all control mice dye.
Method: Mice were anesthetized with a cocktail of xylazine/ketamine. After a laparotomy, tumoral Hepa 1.6 cells were injected in PBS through the portal vein (2.5·10^6 cells/100 μL) in PBS. The treatment was started 4 days after tumor injection. The anti-CMKLR1 antibody (2G1clone) and the hIgG1 istotype control were injected at 0.8 mg/kg three times per week during 2 weeks. The anti-PD1 monoclonal antibody was injected twice a week during 2 weeks intraperitoneally in PBS (8 mg/kg). Combination anti-CMKLR1 and anti-PD1 antibodies was tested as well (0.8 mg/kg and 8 mg/kg respectively).

B1: 2G1: chimeric anti-CMKLR1 antibody, murine variable regions (SEQ ID No: 10 and 17), human IgG1 constant regions; VH-CDR3 variant LI (antibody, V domains shown)
VH: METDTLLLWVLLLWVPGSTGDEVQLVASGGGLVQPGGSLKLSCAASGFTFSSYGMSWVRQTPDRRLELVATINRYGGSTYYPDSVKGRFTISRDNAKNTLYLQMSSLKSEDTAMYYCPRLIYYGNEGDSWGQGTTLTVSS
VL: METDTLLLWVLLLWVPGSTGDQIVLTQSPAIMSASPGEKVTMTCSASSSVSFMHWYQQKSGTSPKRWIYDTTKLTSGVPARFSGSGSGTFYSLTISSMEAEDAATYYCQQWNSKPPLTFGPGTKLELKR
modifications: human IgG1 constant regions
notes: VH-CDR3 variant LI
percentage of weight loss ([1]; FIG. 4A): lost less weight | score stool ([1]; FIG. 4B): better score stool | survival percentage ([2]; FIG. 5A): better survival percentage | glycaemia (blood glucose concentration) ([2]; FIG. 5B-C): almost normal glycaemia | tumor growth (tumor area) (4T1 cells; 4T1 mammary carcinoma, FIG. 8A, 10 μg/injection at day 4 and day 7, vs isotype control): did not show any improvement in the tumor growth | lung metastasis by bioluminescence imaging (4T1 cells; 4T1 model, FIG. 8B, 0.8 mg/kg three times a week for three weeks, vs control antibody): reduces the lung metastasis | lymph node metastasis (4T1 cells; 4T1 model, data not shown, two animals in the control have metastasis): no animals treated with the anti-CMKLR1 compound has metastasis | activation (phosphorylation) of Akt protein [3]: able to induce the activation | activation (phosphorylation) of Erk protein [3]: able to induce the activation | reversal of Chemerin-induced inhibition of forskolin-dependent cAMP production (CMKLR1 receptor): could not revert this inhibition of production | survival rate (Hepa 1.6 cells): 15%
